Assay results: article PMC4774645

What was measured:
[1] = APMA or MMP-3 zymogen activation time course, Western; conditions: glycan lost; control: wild type
[2] = fluorogenic substrate kinetics with TIMP-1 titration; conditions: glycan lost; control: wild type
[3] = mCherry fluorescence in media, 32 h time course; conditions: glycan lost; control: wild type
[4] = Western blot of culture media, 24 h; conditions: glycan lost; control: wild type
[5] = gelatin zymography of secreted protein; conditions: glycan lost; control: wild type
[6] = mCherry co-localisation with organelle-targeted eGFP; conditions: glycan lost; control: wild type
[7] = Western blot of cell lysate; conditions: glycan lost; control: wild type
[8] = mCherry fluorescence in media, 24 h, N38X series; conditions: glycan lost; control: wild type
[9] = fluorogenic substrate assay on cell lysate; conditions: glycan lost; control: wild type
[10] = hMMP-9-mCherry fluorescence microscopy; conditions: control: untreated
[11] = mCherry fluorescence in media, 24 h; conditions: glycan changed form; control: untreated
[12] = Western blot of media, transfected HEK293; conditions: control: untreated

B1: human matrix metalloproteinase 9 (hMMP-9): mS38 (protein)
parent chain: MSLWQPLVLVLLVLGCCFAAPRQRQSTLVLFPGDLRTNLTDRQLAEEYLYRYGYTRVAEMRGESKSLGPALLLLQKQLSLPETGELDSATLKAMRTPRCGVPDLGRFQTFEGDLKWHHHNITYWIQNYSEDLPRAVIDDAFARAFALWSAVTPLTFTRVYSRDADIVIQFGVAEHGDGYPFDGKDGLLAHAFPPGPGIQGDAHFDDDELWSLGKGVVVPTRFGNADGAACHFPFIFEGRSYSACTTDGRSDGLPWCSTTANYDTDDRFGFCPSERLYTQDGNADGKPCQFPFIFQGQSYSACTTDGRSDGYRWCATTANYDRDKLFGFCPTRADSTVMGGNSAGELCVFPFTFLGKEYSTCTSEGRGDGRLWCATTSNFDSDKKWGFCPDQGYSLFLVAAHEFGHALGLDHSSVPEALMYPMYRFTEGPPLHKDDVNGIRHLYGPRPEPEPRPPTTTTPQPTAPPTVCPTGPPTVHPSERPTAGPTGPPSAGPTGPPTAGPSTATTVPLSPVDDACNVNIFDAIAEIGNQLYLFKDGKYWRFSEGRGSRPQGPFLIADKWPALPRKLDSVFEERLSKKLFFFSGRQVWVYTGASVLGPRRLDKLGLGADVAQVTGALRSGRGKMLLFSGRRLWRFDVKAQMVDPRSASEVDRMFPGVPLDTHDVFQYREKAYFCQDRFYWRVSSRSELNQVDQVGYVTYDILQCPED
- other: proteolytic processing [1]: no change
- other: inhibition by TIMP-1 [2]: no change
- expression_or_secretion, fold_change [3]: no change
- expression_or_secretion [4]: no change
- enzymatic_activity [5]: no change
- localisation_or_trafficking [6]: no change
- expression_or_secretion [7]: no change

B2: human matrix metalloproteinase 9 (hMMP-9): N38G (protein)
parent chain: B1 parent chain
- expression_or_secretion [8]: no change

B3: human matrix metalloproteinase 9 (hMMP-9): N120S (protein)
parent chain: B1 parent chain
- expression_or_secretion, fold_change [3]: decreases
- expression_or_secretion [4]: decreases
- enzymatic_activity [9]: decreases
- localisation_or_trafficking [6]: changes
- expression_or_secretion [7]: no change

B4: human matrix metalloproteinase 9 (hMMP-9): N38E (protein)
parent chain: B1 parent chain
- expression_or_secretion [8]: no change

B5: human matrix metalloproteinase 9 (hMMP-9): CST (1 mM) (protein)
parent chain: B1 parent chain
- localisation_or_trafficking ([10]; glycan changed form): changes
- expression_or_secretion [11]: decreases

B6: human matrix metalloproteinase 9 (hMMP-9): tunicamycin (protein)
parent chain: B1 parent chain
- expression_or_secretion ([12]; glycan lost): decreases

B7: human matrix metalloproteinase 9 (hMMP-9): castanospermine (CST) (protein)
parent chain: B1 parent chain
- expression_or_secretion ([12]; glycan changed form): decreases

B8: human matrix metalloproteinase 9 (hMMP-9): tunicamycin (250 ng/ml) (protein)
parent chain: B1 parent chain
- localisation_or_trafficking ([10]; glycan lost): changes

B9: human matrix metalloproteinase 9 (hMMP-9): mS38/ N120S (protein)
parent chain: B1 parent chain
- expression_or_secretion, fold_change [3]: decreases
- expression_or_secretion [4]: abolishes
- enzymatic_activity [9]: decreases
- localisation_or_trafficking [6]: changes
- expression_or_secretion [7]: no change

B10: human matrix metalloproteinase 9 (hMMP-9): N38P (protein)
parent chain: B1 parent chain
- expression_or_secretion [8]: no change
